Assay [1] has as its target Carcinoembryonic antigen (CEA) on CEA positive cells (UniProt P06731). Description: cell-based or functional assay.
The target of assay [2] is CD3 on human T cells (human) (UniProt P07766). In words: flow cytometry on T cells coated with 1 µg/mL antibody. (In general: Flow cytometry measures light scatter and fluorescence of single cells or particles in a stream.)
UniProt P07766, sequence (P07766 23-207, chain 1 of 3): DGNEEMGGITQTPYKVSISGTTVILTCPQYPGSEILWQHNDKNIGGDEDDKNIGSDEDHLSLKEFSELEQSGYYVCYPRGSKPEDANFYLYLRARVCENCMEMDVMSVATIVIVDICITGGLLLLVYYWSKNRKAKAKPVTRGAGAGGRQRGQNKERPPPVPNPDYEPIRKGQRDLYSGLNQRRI
UniProt P07766, sequence (P04234 22-171, chain 2 of 3, further chain): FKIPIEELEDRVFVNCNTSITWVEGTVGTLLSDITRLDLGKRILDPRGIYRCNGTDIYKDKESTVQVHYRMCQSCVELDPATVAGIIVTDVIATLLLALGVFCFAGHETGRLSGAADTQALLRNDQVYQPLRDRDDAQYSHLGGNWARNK
UniProt P07766, sequence (P09693 23-182, chain 3 of 3, further chain): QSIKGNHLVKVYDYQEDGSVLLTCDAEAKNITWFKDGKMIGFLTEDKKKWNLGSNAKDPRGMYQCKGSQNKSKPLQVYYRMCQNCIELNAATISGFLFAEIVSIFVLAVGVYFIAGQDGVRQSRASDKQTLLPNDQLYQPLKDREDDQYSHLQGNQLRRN

UniProt P06731, sequence (P06731 35-702): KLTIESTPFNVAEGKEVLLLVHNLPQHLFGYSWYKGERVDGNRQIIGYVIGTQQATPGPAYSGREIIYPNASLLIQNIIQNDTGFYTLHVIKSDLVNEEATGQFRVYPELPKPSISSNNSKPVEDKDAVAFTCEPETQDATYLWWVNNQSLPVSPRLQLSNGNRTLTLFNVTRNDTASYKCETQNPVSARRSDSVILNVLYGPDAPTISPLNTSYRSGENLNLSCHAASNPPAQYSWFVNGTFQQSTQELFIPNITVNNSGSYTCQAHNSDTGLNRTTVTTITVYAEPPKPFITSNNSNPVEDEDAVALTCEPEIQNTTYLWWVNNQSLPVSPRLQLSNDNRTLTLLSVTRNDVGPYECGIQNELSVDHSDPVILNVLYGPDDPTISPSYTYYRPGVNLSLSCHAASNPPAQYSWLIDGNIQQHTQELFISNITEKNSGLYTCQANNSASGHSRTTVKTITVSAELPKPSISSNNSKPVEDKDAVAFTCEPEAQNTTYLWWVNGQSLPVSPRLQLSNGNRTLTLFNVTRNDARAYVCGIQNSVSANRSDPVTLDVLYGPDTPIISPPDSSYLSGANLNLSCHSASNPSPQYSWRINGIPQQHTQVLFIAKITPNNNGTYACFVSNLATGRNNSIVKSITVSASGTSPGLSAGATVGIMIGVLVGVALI

For the substance “dbBiTE (dual specific bivalent bispecific T-cell engaging antibody: DBCO-hOKT3 clicked to azide-M5A) (bispecific antibody)”, in assay [1], the redirected cell lysis, T-cells coated with preformed dbBiTEs, E:T 10:1 amounted to 90% and the redirected cell lysis, on-cell (in situ) generated dbBiTE coated T-cells, E:T 10:1 came out at 60%.
In assay [2], “DBCO-hOKT3 (humanized anti-human CD3 antibody hOKT3 conjugated to DBCO)” had a percent of cells labelled of over 90%.

These data come from patent US20220119552A1.
